# Source: patent publication US5227469A, “Platelet aggregation inhibitors from the leech” (Genentech, Inc., priority 1990, dated 1993)
# Like-named read-outs stand apart in the source and are kept apart here. No end group written: not given here.
# B1: GRGDV (peptide)
# peptide: GRGDV
# B2: decorsin (other)
# chain: APRLPQCQGDDQEKCLCNKDECPPGQCRFPRGDADPYCE
# B3: ornatin C (other)
# chain: IYVRPTKDELLYCGEFRELGQPDKKCRCDGKPCTVGRCKFARGDADDKCTSA
# B4: ornatin E (other)
# chain: IYVRPTKDELLYCGEFRELGQPDKKCRCDGKPCTVGRCNFARGDNDDKCI
# Columns and labels:
# [1] = tested on: human platelet rich plasma (PRP)
# Procedure: The Fg/GP IIb IIIa ELISA was performed as previously described (Dennis, M. S., Henzel, W. J., Pitti, R. M., Lipari, M. T., Napier, M. A., Deisher, T. A., Bunting S. and Lazarus, R. A. (1990) Proc. Natl. Acad. Sci. USA, 87, 2471-2475; and Seymour, J. L., Henzel, W. J., Nevins, B., Stults, J. T., and Lazarus, R. A. (1990) J. Biol. Chem. 265, 10143-10147).Platelet aggregation assays were carried out in human platelet rich plasma (PRP) as reported earlier (Dennis, M. S., Henzel, W. J., Pitti, R. M., Lipari, M. T., Napier, M. A., Deisher, T. A., Bunting, S. and Lazarus, R. A. (1990) Proc. Natl. Acad. Sci. USA, 87, 2471-2475; and Seymour, J. L., Henzel, W. J., nevins, B., Stults, J. T., and Lazarus, R. A. (1990) J. Biol. Chem. 265, 10143-10147).
# Platelet aggregation assays were performed in PRP as follows:
# 50 ml whole human blood (9 parts) was drawn on 3.8% Na citrate (1 part) from a donor who had not taken any aspirin or related medication for at least two weeks. Blood was centrifuged at 160×g for 10 minutes at 22° C., allowed to stand for five minutes, and the PRP was decanted. Platelet poor plasma (PPP) was prepared from the remaining blood by centrifugation at 2000×g for 25 minutes at 22° C. PRP platelet count was measured on a Baker 9000 hematology analyzer and diluted to about 300,000 platelets/μL using PPP.
# Light transmittance was recorded after the addition of ADP (8 μM), which initiated platelet aggregation. The inhibition of platelet aggregation was measured at the maximum aggregation response.
# [2] = biological target: T1, GP IIb IIIa (Homo sapiens, UniProt P05106+P08514); assay: Binding to immobilized GP IIb IIIa affinity resin, elution with EDTA; conditions: eluted by EDTA
# T1 construct: GP IIb IIIa was purified from outdated human platelets as previously described; from tissue; host or cells: outdated human platelets
# Procedure: Immediately before coupling, approximately 10 ml Affi-Prep 10 resin was washed with 300 ml ice cold 50 mM sodium acetate, pH 4.5 in a coarse sintered glass funnel. After removing excess buffer, approximately 4 ml washed resin was transferred to a 15 ml conical tube containing 8 mg purified GP IIb IIIa which had been previously dialyzed into 0.1M sodium bicarbonate, 2 mM CaCl2, pH 8.0.
# The coupling was carried out on a rocking platform at room temperature for 2 hours, and then overnight at 4° C. Excess reactive groups on the resin were blocked by incubation with 0.1M ethanolamine, 2 mM CaCl2, pH 9.0 for 1 hour at room temperature. The resin was then transferred to a sintered glass funnel, and washed in an alternating fashion with 20 ml aliquots of 0.1M sodium acetate, pH 4.5, and 0.1M Tris, pH 7.5, each containing 0.5M NaCl and 2 mM CaCl2, to remove any non-covalently bound material. A total of approximately 300 ml of each buffer was used in this cycle washing. Finally, the coupled GP IIb IIIa resin was washed with 100 ml 50 mM Tris, pH 7.5 containing 2 mM CaCl2 and stored at 4° C. prior to use.
# The affinity column (ca. 4 ml of resin) was equilibrated in 50 mM Tris, pH 7.5 containing 2 mM CaCl2. The neutralized TFA pool was loaded onto the column at a flow rate of 0.5 ml/min and 25 ml fractions were collected. […]
# [3] = biological target: T1, GP IIb IIIa; assay: Fg/GP IIb IIIa solid phase ELISA (inhibition of GP IIb IIIa binding to immobilized fibrinogen); conditions: for activity in GP IIb IIIa /Fg ELISA compared with decorsin purified from whole leech homogenate: specific activity (IC50); for half maximal dilution / total units / specific activity (U/mg): Table III; for half maximal dilution: dilution giving half maximal response in ELISA, fractions from 310 g P. ornata; for total units: half maximal dilution multiplied by total volume in ml; for specific activity (U/mg): total units per mg total protein
# Procedure: The Fg/GP IIb IIIa ELISA was performed by a modification of the method of Nachman and Leung (Nachman, R. L. et al. (1982) J. Clin. Invest. 69, 263-269) according to the following protocol, with washes of phosphate buffered saline containing 0.01% Tween 20 between each step:
# Microtiter plates were coated with purified human fibrinogen (10 μg/ml), washed, and then blocked with TACTS, 0.5% BSA. The plates were washed and samples to be evaluated were added, followed immediately by addition of purified GP IIb IIIa (40 μg/ml) in TACTS, 0.5% BSA (Calbiochem). After a 1 hr incubation, the plate was washed and AP3 (1 μg/ml) was added.
# Following a 1 hr incubation and another wash, goat anti-mouse IgG conjugated to horseradish peroxidase was added. A final wash was performed, and developing reagent buffer (0.66 mg/ml o-phenylenediamine dihydrochloride, 0.012% H2 O2, 22 mM citrate, 50 mM phosphate, pH 5.0) added; plates were incubated until color developed.
# The reaction was stopped with 1N H2 SO4 and the absorbance at 492 nm measured. A four parameter fit (Marquardt, D. W. (1963) J. Soc. Indust. Appl. Math 11, 431-441) was used to estimate the half maximal inhibition concentration.
# [4] = biological target: glycoprotein IIb IIIa (GP IIb IIIa), purified from outdated human platelets (human) (UniProt P08514); assay: GP IIb IIIa/Fg ELISA, IC50 against the reference GRGDV
# [5] = biological target: glycoprotein IIb IIIa (GP IIb IIIa), purified from outdated human platelets (human) (UniProt P08514); assay: Fg/GP IIb IIIa solid phase ELISA, inhibition of GP IIb IIIa binding to immobilized fibrinogen
# [6] = biological target: glycoprotein IIb IIIa (GP IIb IIIa), purified from outdated human platelets (human) (UniProt P08514); assay: Fg/GP IIb-IIIa solid phase ELISA
# [7] = biological target: GP IIb IIIa on human platelets (platelet rich plasma) (human) (UniProt P08514)
# [8] = biological target: glycoprotein IIb IIIa (GP IIb IIIa), purified from outdated human platelets (human) (UniProt P08514); assay: Fg/GP IIb IIIa ELISA, dilution of the 0.018 mg/ml fraction giving a half maximal response
# [9] = biological target: glycoprotein IIb IIIa (GP IIb IIIa), purified from outdated human platelets (human) (UniProt P08514); assay: Fg/GP IIb IIIa ELISA units per mg protein
# [10] = biological target: glycoprotein IIb IIIa (GP IIb IIIa), purified from outdated human platelets (human) (UniProt P08514); assay: Fg/GP IIb IIIa ELISA, dilution of the 0.024 mg/ml fraction giving a half maximal response
# [11] = biological target: glycoprotein IIb IIIa (GP IIb IIIa), purified from outdated human platelets (human) (UniProt P08514); assay: Fg/GP IIb IIIa ELISA, dilution of the 0.113 mg/ml fraction giving a half maximal response
# [12] = biological target: glycoprotein IIb IIIa (GP IIb IIIa), purified from outdated human platelets (human) (UniProt P08514); assay: Fg/GP IIb IIIa ELISA, dilution of the 0.020 mg/ml fraction giving a half maximal response
# [13] = biological target: glycoprotein IIb IIIa (GP IIb IIIa), purified from outdated human platelets (human) (UniProt P08514); assay: Fg/GP IIb IIIa ELISA, dilution of the 0.085 mg/ml fraction giving a half maximal response
# [14] = biological target: T2, GP IIb IIIa on human platelets (platelet rich plasma) (human, UniProt P08514); assay: cell-based or functional assay
# [15] = biological target: T2, GP IIb IIIa on human platelets …; assay: cell-based or functional assay; remark: listed apart in the source
# [16] = four parameter fit, read-out: IC50 in GP IIb IIIa /Fg ELISA
# [17] = Table VI, n in parenthesis, read-out: IC50 (nM) Fg/GP IIb-IIIa solid phase ELISA
molecule,measurement,setting,value
"APRLPQCQGDDQEKCLCNKDECPPGQCRFPRGDADPYCE [decorsin, 39-amino acid RGD protein from the leech Macrobdella decora, GP IIb IIIa antagonist]",activity in platelet aggregation assay compared with native decorsin,[1],essentially identical
same,binding to GP IIb IIIa receptor (words),[2],bound
same,binding to GP IIb IIIa receptor (words),[2]; listed as Decorsin,bind
same,IC50,[3]; [16],~1.5 nM
same,potency relative to pentapeptide GRGDV in GP IIb IIIa /Fg ELISA,[3]; ratio of IC50 values,about 27 times
same,activity in GP IIb IIIa /Fg ELISA compared with decorsin purified from whole leech homogenate,[3],identical
same,activity in GP IIb IIIa /Fg ELISA compared with decorsin purified from whole leech homogenate,[3]; listed as synthetic native decorsin,essentially identical
"GRGDV [GRGDV, reference compound] [listing 1 of 2 here]",IC50,[3]; [17],47.5 ± 6.4 nM
same,IC50,[3]; [16],~40 nM
"GRGDV [GRGDV, reference compound] [listing 2 of 2 here]",IC50,"[1]; read-out: IC50 in platelet aggregation assay, ADP (8 μM) induced, human PRP",~75000 nM
"IPQCRDVKESGQPNDKCRCNGKPCTVGKCTIARGDDNDKCT [ornatin A2, ornatin isoform isolated from P. ornata]",activity of C18 rp HPLC peaks in Fg/GP IIb IIIa ELISA,"[3]; FIG. 8 inset, rechromatography of ornatin A",active
same,half maximal dilution,[3],809
same,total units,[3],405
same,specific activity (U/mg),[3],44505 U/mg
same,IC50,[3]; [17],5.1 nM
"IYVRPTKDELLYCGEFRELGQPDKKCRC [ornatin D, ornatin isoform from P. ornata]",half maximal dilution,[3],1032
same,total units,[3],516
same,specific activity (U/mg),[3],49615 U/mg
same,IC50,[3]; [17],3.2 ± 0.35 nM
"IYVRPTKDELLYCGEFRELGQPDKKCRCDGKPCTVGRCKFARGDADDKCTSA [ornatin C, ornatin isoform isolated from P. ornata]",half maximal dilution,[3],4422
same,total units,[3],2211
same,specific activity (U/mg),[3],39060 U/mg
same,IC50,[3]; [17],4.9 ± 0.5 nM
"IYVRPTKDELLYCGEFRELGQPDKKCRCDGKPCTVGRCNFARGDNDDKCI [ornatin E, ornatin isoform isolated from P. ornata]",half maximal dilution,[3],3610
same,total units,[3],1805
same,specific activity (U/mg),[3],42370 U/mg
same,IC50,[3]; [17],4.5 ± 0.77 nM
"IYVRPTNDELNYCGDFRELGQPDKKCRCDGKPCTVGRCKFARGDNDDKCISA [ornatin B, ornatin isoform isolated from P. ornata]",half maximal dilution,[3],1215
same,total units,[3],608
same,specific activity (U/mg),[3],50670 U/mg
same,IC50,[3]; [17],3.5 ± 0.25 nM
N-3 decorsin: isoform which lacks the first three amino terminal residues of decorsin (LPQCQGDDQEKCLCNKDECPPGQCRFPRGDADPYCE),activity in platelet aggregation assay compared with native decorsin,[1],Comparable activities
same,IC50,[3]; [16],~1.5 nM
decorsin,times more potent than GRGDV,[4],27 fold
same,IC50,[5],1.5 nM
kistrin (from UniProt P30403),IC50,[6],4.6 nM
same,"IC50 (nM), human platelet aggregation assay (ADP activation)",[7],137 nM
kistrin [reference compound],IC50,"[1]; read-out: IC50 (nM) human platelet aggregation assay, Table VI, ADP activation, n in parenthesis",137 nM
same,IC50,[3]; [17],4.6 ± 0.06 nM
ornatin A2,half maximal dilution,[8],809
same,IC50,[6],5.1 nM
same,specific activity (U/mg),[9],44500 U/mg
ornatin B,half maximal dilution,[10],1220
same,IC50,[6],3.5 nM
same,specific activity (U/mg),[9],50700 U/mg
ornatin C,half maximal dilution,[11],4420
same,IC50,[6],4.9 nM
same,specific activity (U/mg),[9],39100 U/mg
ornatin D,half maximal dilution,[12],1030
same,IC50,[6],3.2 nM
same,specific activity (U/mg),[9],49600 U/mg
ornatin E,IC50,[6],4.5 nM
same,specific activity (U/mg),[9],42400 U/mg
same,half maximal dilution,[13],3610
B1,"IC50, inhibition of ADP-induced platelet aggregation in human platelet rich plasma",[14],~75000 nM
same,IC50,[5],40 nM
same,IC50,[6],47.5 nM
B2,"IC50 (nM), human platelet aggregation assay (ADP activation)",[15],314 nM
same,"IC50, inhibition of ADP-induced platelet aggregation in human platelet rich plasma",[14],~300 nM
B3,"IC50 (nM), human platelet aggregation assay (ADP activation)",[15],324 nM
B4,"IC50 (nM), human platelet aggregation assay (ADP activation)",[15],516 nM
